Source: US20210079071A1 (published 2021)
Like-named read-outs stand apart in the source and are kept apart here.

What was measured:
[1] = biological target: vWbp peptide vWbp(1-12) conjugated to ovalbumin (Staphylococcus aureus); assay: ELISA: purified GMA-2500 on vWbp peptide-ovalbumin, A490
vWbp-(1-263) [2] = biological target: T1, vWbp-(1-263) (Staphylococcus aureus); assay: ELISA: purified GMA-2500 on the preparation 'vWbp 1-263 WT 011113, RIF0540D', A490
T1 chain: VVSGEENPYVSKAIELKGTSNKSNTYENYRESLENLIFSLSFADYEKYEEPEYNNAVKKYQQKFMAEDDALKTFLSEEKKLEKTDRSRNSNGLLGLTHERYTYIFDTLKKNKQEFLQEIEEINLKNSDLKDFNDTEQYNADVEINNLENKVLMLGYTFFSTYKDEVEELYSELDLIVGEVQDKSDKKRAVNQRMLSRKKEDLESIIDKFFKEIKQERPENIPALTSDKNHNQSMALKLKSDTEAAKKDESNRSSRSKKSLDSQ

[3] = biological target: vWbp peptide vWbp(1-12), […], unconjugated (Staphylococcus aureus); assay: ELISA, unconjugated peptide
vWbp-(1-263) [4] = biological target: T1, vWbp-(1-263); assay: ELISA: purified GMA-2500 on the preparation 'vWbp 1-263 022109, RIF 0540E', A490
[5] = biological target: T2, BODIPY-labeled staphylocoagulase SC (S7C)(1-325) (Staphylococcus aureus, UniProt P17855 27-351); assay: fluorescence titration of BODIPY-SC(S7C)(1-325) with GMA-2105
T2 sequence: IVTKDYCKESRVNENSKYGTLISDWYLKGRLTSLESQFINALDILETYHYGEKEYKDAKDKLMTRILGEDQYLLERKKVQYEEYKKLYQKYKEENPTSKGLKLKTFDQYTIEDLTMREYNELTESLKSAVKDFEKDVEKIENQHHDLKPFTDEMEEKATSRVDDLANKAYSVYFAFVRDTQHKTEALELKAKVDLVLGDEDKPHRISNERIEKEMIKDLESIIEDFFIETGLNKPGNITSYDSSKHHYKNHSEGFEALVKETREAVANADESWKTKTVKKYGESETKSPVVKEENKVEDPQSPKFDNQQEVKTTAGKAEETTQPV

SC-(1-325), unlabeled = biological target: T3, SC-(1-325), unlabeled (Staphylococcus aureus, UniProt P17855 27-351); assay: Western blot of recombinant proteins; by the text, primary antibody at 10 µg/mL, HRP anti-mouse IgG, chemiluminescence
T3 sequence: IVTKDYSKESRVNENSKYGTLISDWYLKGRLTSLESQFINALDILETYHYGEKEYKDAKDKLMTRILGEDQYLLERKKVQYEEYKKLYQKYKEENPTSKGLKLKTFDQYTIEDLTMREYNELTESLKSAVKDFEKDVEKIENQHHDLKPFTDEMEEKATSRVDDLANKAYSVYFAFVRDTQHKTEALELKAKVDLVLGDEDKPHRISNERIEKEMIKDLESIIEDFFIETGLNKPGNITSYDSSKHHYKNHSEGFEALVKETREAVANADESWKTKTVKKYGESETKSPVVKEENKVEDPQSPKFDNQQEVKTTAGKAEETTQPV
Excerpt: The elaborated proteins were transferred to PVDF membrane for western blot analysis to probe the specificity and cross-reactivity of the monoclonal antibodies targeting the critical N-termini of either SC or vWbp. […] Following primary antibody treatment, blots were washed and probed with horseradish peroxidase-labeled rabbit anti-mouse IgG that lacked the constant region and then imaged for chemiluminescence substrate oxidation using a Fuji-Films LAS1000. The blot was stripped between primary antibody challenges. […] To accomplish this, the blot was probed with the both the SC and vWbp neutralizing antibodies and then stained for total mouse IgG content using an anti-mouse IgG (H+L)-FITC polyclonal antibody.

[6] = biological target: T2, BODIPY-labeled staphylocoagulase SC …; assay: equilibrium titration in solution, increase in BODIPY fluorescence, quadratic binding equation
[7] = biological target: T2, BODIPY-labeled staphylocoagulase SC …; assay: equilibrium titration in solution, increase in BODIPY fluorescence
vWbp-(1-474) = biological target: T4, vWbp-(1-474) (Staphylococcus aureus); assay: Western blot of recombinant proteins, probed with GMA-2105
T4 chain: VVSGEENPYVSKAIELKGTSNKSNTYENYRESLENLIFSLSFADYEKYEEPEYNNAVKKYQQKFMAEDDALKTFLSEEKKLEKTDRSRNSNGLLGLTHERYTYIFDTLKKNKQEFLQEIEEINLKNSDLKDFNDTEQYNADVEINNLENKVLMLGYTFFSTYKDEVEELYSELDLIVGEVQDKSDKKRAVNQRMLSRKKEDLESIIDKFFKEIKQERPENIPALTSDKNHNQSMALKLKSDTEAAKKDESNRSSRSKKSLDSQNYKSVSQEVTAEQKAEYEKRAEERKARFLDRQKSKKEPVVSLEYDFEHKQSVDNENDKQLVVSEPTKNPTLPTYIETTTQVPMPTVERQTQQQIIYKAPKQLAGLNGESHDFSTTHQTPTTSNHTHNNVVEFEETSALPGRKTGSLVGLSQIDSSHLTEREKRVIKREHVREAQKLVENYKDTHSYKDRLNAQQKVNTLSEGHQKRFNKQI

vWbp-(1-263) [8] = biological target: T1, vWbp-(1-263); assay: as above
[9] = biological target: T5, Staphylocoagulase fragment SC(1-246), unlabeled (Staphylococcus aureus, UniProt P17855 27-272)
T5 sequence: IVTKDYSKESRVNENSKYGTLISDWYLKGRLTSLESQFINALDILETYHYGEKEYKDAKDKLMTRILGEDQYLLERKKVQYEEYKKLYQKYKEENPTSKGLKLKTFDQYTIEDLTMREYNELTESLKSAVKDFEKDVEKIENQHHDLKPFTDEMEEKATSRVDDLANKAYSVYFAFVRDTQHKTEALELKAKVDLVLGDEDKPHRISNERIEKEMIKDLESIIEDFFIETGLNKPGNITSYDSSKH

[10] = biological target: T2, BODIPY-labeled staphylocoagulase SC …
[11] = biological target: T2, BODIPY-labeled staphylocoagulase SC …; assay: fit of the fluorescence titrations; row 'Probe SC(1-246) S7C-BodipyFL'
[12] = biological target: T5, Staphylocoagulase fragment SC(1-246), …; assay: competitive displacement of BODIPY-labeled staphylocoagulase from GMA-2105 in solution, fluorescence
Mutated Peptide Ala 9 = Mutated Peptide Ala 9 (Staphylococcus aureus); assay: solid phase competitive inhibition ELISA
Mutated Peptide Ala 8 = Mutated Peptide Ala 8 (Staphylococcus aureus); assay: solid phase competitive inhibition ELISA
[13] = biological target: Mutated Peptide Ala 8 & 9 (Staphylococcus aureus); assay: solid phase competitive inhibition ELISA
[14] = biological target: T2, BODIPY-labeled staphylocoagulase SC …; assay: fluorescence titration of BODIPY-labeled SC(1-325) with chimeric GMA-2105

B1: GMA-2500 murine anti-vWbp monoclonal antibody (antibody, V domains shown)
VH: EVQLQQSGTVLARPGASVKMSCKTSGYSFTSYWIHWVKQRPGQGLEWIGAISPGNSDTNYNQNFKGKAKLTAVTSASTAYMELSSLTTEDSAVYYCATGSHYWGQGTTLSVSS
VL: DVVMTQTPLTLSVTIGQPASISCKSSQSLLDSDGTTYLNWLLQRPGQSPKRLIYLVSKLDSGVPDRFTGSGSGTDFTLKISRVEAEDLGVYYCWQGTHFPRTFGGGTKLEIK
notes: also called 10C9.D1.B6
In the case of B1, the “EC50 (read off the curve)” value [1] is reported as roughly 0.1 µg/mL, the “EC50 (read off the curve)” value (vWbp-(1-263) [2]) is reported as roughly 0.1 µg/mL and the binding result [3] is reported as “binds”. The “EC50 (read off the curve)” value (vWbp-(1-263) [4]) was roughly 0.1 µg/mL.

B2: GMA-2105 murine anti-staphylocoagulase monoclonal antibody (antibody, V domains shown)
VH: EVKLEESGGGLVQPGGSMKLSCAASGFTFSDAWMDWVRQSPEKGLEWVAEIRTKANNHATYYAESVKGRFTISRDDSKSSVYLQMNSLRAEDTGIYYCTNVYYGNNDVKDYWGQGTSVTVSP
VL: DIVMTQSQKFMSTSVGDRVSVTCKASQNVDIYVAWYQQKPGQSPKALIYSASYRFSGVPDRFTGSGSGTDFTLSISNVQSEDLAEYFCQQYNNYPYTFGGGTKLEIKR
notes: also called 2A1.5H4.B7; anti-SC Ab
In the case of B2, the stoichiometry [5] is reported as 2 mol staphylocoagulase/mol GMA-2105, the binding result (SC-(1-325), unlabeled) is reported as “binds” and the Kd [6] is reported as 2 nM. For the same binder, the stoichiometry [7] was 1.6 mol BODIPY-SC/mol GMA-2105, the binding result (vWbp-(1-474)) was “no binding (tested: 10 µg/mL (from the text))” and the binding result (vWbp-(1-263) [8]) was “no binding (tested: 10 µg/mL (from the text))”. For the same binder, the Kd [9] was 0.71 nM, the “Stoichiometry (mol mAb / mol wild type)” value [9] was 1.2 mol mAb / mol wild type and the Kd [10] was 0.99 nM. The Kd [11] was 1.09 nM, the “Stoichiometry (mol mAb / mol probe)” value [11] was 0.99 mol mAb / mol probe and the Kd [12] was 4 nM. B2: binds (Mutated Peptide Ala 9); binds (Mutated Peptide Ala 8); binds [13].

B3: Chimeric GMA-2105 (mouse variable regions on human constant regions) (antibody, V domains shown)
VH: EVKLEESGGGLVQPGGSMKLSCAASGFTFSDAWMDWVRQSPEKGLEWVAEIRTKANNHATYYAESVKGRFTISRDDSKSSVYLQMNSLRAEDTGIYYCTNVYYGNNDVKDYWGQGTSVTVSP
VL: DIVMTQSQKFMSTSVGDRVSVTCKASQNVDIYVAWYQQKPGQSPKALIYSASYRFSGVPDRFTGSGSGTDFTLSISNVQSEDLAEYFCQQYNNYPYTFGGGTKLEIKR
For B3, the Kd [9] was 0.75 nM, the “Stoichiometry (mol mAb / mol wild type)” value [9] was 1.35 mol mAb / mol wild type and the stoichiometry [14] was 2 mol staphylocoagulase/mol chimeric antibody. For the same binder, the Kd [11] was 0.79 nM and the “Stoichiometry (mol mAb / mol probe)” value [11] was 0.94 mol mAb / mol probe.
